According to patent US7410775B2, “Method for making recombinant peptides or proteins using soluble endoproteases” (Bio-Ker S.R.L., priority 2000, dated 2008):
Residues, ends and D or L forms follow the SMILES beside them. *: point of attachment. pNA = O=[N+]([O-])c1ccc(N*)cc1; Cbz = O=C(OCc1ccccc1)*

Key:
[1] = target: T1, Kluyveromyces lactis Kex1 protease, soluble secreted variant ss-Kex1-C600 (truncated at amino acid 600; parent Kex1 SEQ ID NO: 3) (Kluyveromyces lactis, UniProt P09231); assay: Kinetic constants of ss-Kex1-C600 (single initial substrate concentration, progress curve, Michaelis-Menten fit); type: biochemical
T1 sequence (P09231 103-600): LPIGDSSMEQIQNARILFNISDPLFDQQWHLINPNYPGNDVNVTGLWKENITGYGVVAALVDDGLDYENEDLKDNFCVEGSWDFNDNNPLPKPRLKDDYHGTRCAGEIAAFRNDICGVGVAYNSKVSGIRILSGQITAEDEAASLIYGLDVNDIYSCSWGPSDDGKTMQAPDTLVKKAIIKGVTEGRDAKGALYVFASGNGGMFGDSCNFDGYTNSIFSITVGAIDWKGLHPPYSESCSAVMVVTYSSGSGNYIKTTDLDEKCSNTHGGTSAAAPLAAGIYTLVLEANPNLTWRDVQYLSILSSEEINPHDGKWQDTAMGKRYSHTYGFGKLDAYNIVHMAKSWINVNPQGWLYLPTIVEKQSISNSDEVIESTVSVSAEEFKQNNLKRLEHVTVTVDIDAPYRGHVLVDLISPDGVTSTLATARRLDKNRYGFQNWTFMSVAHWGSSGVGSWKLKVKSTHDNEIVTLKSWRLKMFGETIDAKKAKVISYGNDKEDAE
Description: (§1) The enzyme activity was determined by a calorimetric test which exploits the capacity of the enzyme to hydrolyse the substrate Z-L-tyrosine-L-lysine-L-arginine-p-nitroanilide (Z-Y-K-R-pNA). The incubation mixture comprises 0.1 mM Z-Y-K-R-pNA in 0.2 M Hepes, pH 7.0 and 1 mM CaCl2, in a total volume of 1.5 ml at 37° C. The reaction is monitored at 405 nm, a wavelength at which the maximum decrease in the molar extinction coefficient (As), equal to 10.9 mM^−1 cm^−1, occurs. An enzyme unit is defined as being the quantity of enzyme that catalyses the transformation of 1 μmole of substrate per minute under the conditions described above. […]
(§2) The kinetic constants were determined by a simplified procedure which requires that measurements be carried out at a single initial concentration of substrate and until the substrate is exhausted. The method provides that, at various times, the average values of residual concentration and rate be determined and is applicable in those cases in which the enzyme catalyses an entirely irreversible reaction under the operating conditions, and is not subject to inhibition by product (Segel, I. H. (1975) Enzyme Kinetics, Wiley, New York). […]

[2] = target: T2, Saccharomyces cerevisiae Kex2 protease, soluble secreted form ss-Kex2-C613 (parent Kex2 SEQ ID NO: 4) (Saccharomyces cerevisiae, UniProt P13134); assay: Kinetic constants of ss-Kex2-C613 (single initial substrate concentration, progress curve, Michaelis-Menten fit); type: biochemical
T2 construct: pro-region cut at Lys108-Arg109; from yeast
T2 sequence (P13134 1-613): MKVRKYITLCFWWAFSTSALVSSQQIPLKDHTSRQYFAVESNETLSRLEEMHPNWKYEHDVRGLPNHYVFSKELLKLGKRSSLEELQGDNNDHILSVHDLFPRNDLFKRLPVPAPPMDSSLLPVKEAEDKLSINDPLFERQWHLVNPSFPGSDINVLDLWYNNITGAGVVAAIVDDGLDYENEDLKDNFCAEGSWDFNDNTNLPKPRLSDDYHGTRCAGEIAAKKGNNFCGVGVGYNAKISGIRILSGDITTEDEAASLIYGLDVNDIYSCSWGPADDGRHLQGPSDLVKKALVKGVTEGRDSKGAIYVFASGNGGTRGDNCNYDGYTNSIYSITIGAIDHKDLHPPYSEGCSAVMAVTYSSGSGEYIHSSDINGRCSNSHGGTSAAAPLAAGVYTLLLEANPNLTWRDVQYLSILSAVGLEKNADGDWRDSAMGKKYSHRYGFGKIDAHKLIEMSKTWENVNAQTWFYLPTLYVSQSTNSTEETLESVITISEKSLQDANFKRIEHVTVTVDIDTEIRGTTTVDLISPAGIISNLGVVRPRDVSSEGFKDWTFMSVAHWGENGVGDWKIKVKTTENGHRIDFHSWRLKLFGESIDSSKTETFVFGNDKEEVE
Description: as §1, §2

[3] = substrate: N=C(N)NCCC[C@H](NC(=O)[C@H](CCCCN)NC(=O)[C@H](Cc1ccc(O)cc1)NC(=O)OCc1ccccc1)C(=O)Nc1ccc([N+](=O)[O-])cc1; assay: Kinetic constants of ss-Kex1-C600 (single initial substrate concentration, progress curve, Michaelis-Menten fit); type: biochemical, Kluyveromyces lactis; settings: other: ss-Kex1-C600; pH 7.0
Description: The enzyme activity was determined by a calorimetric test which exploits the capacity of the enzyme to hydrolyse the substrate Z-L-tyrosine-L-lysine-L-arginine-p-nitroanilide (Z-Y-K-R-pNA). The incubation mixture comprises 0.1 mM Z-Y-K-R-pNA in 0.2 M Hepes, pH 7.0 and 1 mM CaCl2, in a total volume of 1.5 ml at 37° C. The reaction is monitored at 405 nm, a wavelength at which the maximum decrease in the molar extinction coefficient (As), equal to 10.9 mM^−1 cm^−1, occurs. An enzyme unit is defined as being the quantity of enzyme that catalyses the transformation of 1 μmole of substrate per minute under the conditions described above. Unless expressly indicated otherwise, the data presented in Table 2 refer to the activity secreted in the growth medium by derivatives of the W303 strain which was grown in a flask at 30° C., with agitation (220 rpm), in 1040 medium-2% galactose (except for strains NP255 and NP265 in which the carbon source added to the growth medium was 2% glucose). Various samples were taken along the growth curve for each strain. […] The invention is therefore not limited by the type of promoter used, as long as the levels of secretion of the endoprotease of the invention are satisfactory.
The kinetic constants were determined by a simplified procedure which requires that measurements be carried out at a single initial concentration of substrate and until the substrate is exhausted. The method provides that, at various times, the average values of residual concentration and rate be determined and is applicable in those cases in which the enzyme catalyses an entirely irreversible reaction under the operating conditions, and is not subject to inhibition by product (Segel, I. H. (1975) Enzyme Kinetics, Wiley, New York). The results so obtained were processed using the Grafit programme, which permitted the interpolation of the Michaelis-Menten profile and the determination of the values of Km and Vmax, presented in Table 3. kcat and the kcat/Km ratio were then obtained from those values and from the enzyme concentration.

[4] = substrate: N=C(N)NCCC[C@H](NC(=O)[C@H](CCCCN)NC(=O)[C@H](Cc1ccc(O)cc1)NC(=O)OCc1ccccc1)C(=O)Nc1ccc([N+](=O)[O-])cc1; assay: Kinetic constants of ss-Kex2-C613 (single initial substrate concentration, progress curve, Michaelis-Menten fit); type: biochemical, Saccharomyces cerevisiae; settings: other: ss-Kex2-C613; pH 7.0
Description: as §1, §2

N=C(N)NCCC[C@H](NC(=O)[C@H](CCCCN)NC(=O)[C@H](Cc1ccc(O)cc1)NC(=O)OCc1ccccc1)C(=O)Nc1ccc([N+](=O)[O-])cc1 [Z-Y-K-R-pNA, Z-L-tyrosine-L-lysine-L-arginine-p-nitroanilide] (Cbz-Tyr-Lys-Arg-pNA)
Vmax [1]: 1720 (ΔA min^−1) × 10^3
Vmax [2]: 1029 (ΔA min^−1) × 10^3

B1: Kluyveromyces lactis Kex1 protease, soluble secreted variant ss-Kex1-C600 (truncated at amino acid 600; parent Kex1 SEQ ID NO: 3) (Kluyveromyces lactis NRRL … (protein)
chain: LPIGDSSMEQIQNARILFNISDPLFDQQWHLINPNYPGNDVNVTGLWKENITGYGVVAALVDDGLDYENEDLKDNFCVEGSWDFNDNNPLPKPRLKDDYHGTRCAGEIAAFRNDICGVGVAYNSKVSGIRILSGQITAEDEAASLIYGLDVNDIYSCSWGPSDDGKTMQAPDTLVKKAIIKGVTEGRDAKGALYVFASGNGGMFGDSCNFDGYTNSIFSITVGAIDWKGLHPPYSESCSAVMVVTYSSGSGNYIKTTDLDEKCSNTHGGTSAAAPLAAGIYTLVLEANPNLTWRDVQYLSILSSEEINPHDGKWQDTAMGKRYSHTYGFGKLDAYNIVHMAKSWINVNPQGWLYLPTIVEKQSISNSDEVIESTVSVSAEEFKQNNLKRLEHVTVTVDIDAPYRGHVLVDLISPDGVTSTLATARRLDKNRYGFQNWTFMSVAHWGSSGVGSWKLKVKSTHDNEIVTLKSWRLKMFGETIDAKKAKVISYGNDKEDAE
Km [3]: 61.4 µM
kcat [3]: 3070 s⁻¹
kcat/Km [3]: 5e+07 M⁻¹ s⁻¹

B2: Saccharomyces cerevisiae Kex2 protease, soluble secreted form ss-Kex2-C613 (parent Kex2 SEQ ID NO: 4) (Saccharomyces cerevisiae S288C) (protein)
chain: MKVRKYITLCFWWAFSTSALVSSQQIPLKDHTSRQYFAVESNETLSRLEEMHPNWKYEHDVRGLPNHYVFSKELLKLGKRSSLEELQGDNNDHILSVHDLFPRNDLFKRLPVPAPPMDSSLLPVKEAEDKLSINDPLFERQWHLVNPSFPGSDINVLDLWYNNITGAGVVAAIVDDGLDYENEDLKDNFCAEGSWDFNDNTNLPKPRLSDDYHGTRCAGEIAAKKGNNFCGVGVGYNAKISGIRILSGDITTEDEAASLIYGLDVNDIYSCSWGPADDGRHLQGPSDLVKKALVKGVTEGRDSKGAIYVFASGNGGTRGDNCNYDGYTNSIYSITIGAIDHKDLHPPYSEGCSAVMAVTYSSGSGEYIHSSDINGRCSNSHGGTSAAAPLAAGVYTLLLEANPNLTWRDVQYLSILSAVGLEKNADGDWRDSAMGKKYSHRYGFGKIDAHKLIEMSKTWENVNAQTWFYLPTLYVSQSTNSTEETLESVITISEKSLQDANFKRIEHVTVTVDIDTEIRGTTTVDLISPAGIISNLGVVRPRDVSSEGFKDWTFMSVAHWGENGVGDWKIKVKTTENGHRIDFHSWRLKLFGESIDSSKTETFVFGNDKEEVE
notes: pro-region cut at Lys108-Arg109; from yeast
Km [4]: 56.8 µM
